Numbering of substitutions follows the chain as printed.

In data set [1] the target is T1, Factor H (complement factor H), plasma (Homo sapiens, UniProt P08603 P08603:19-1231). Put plainly: SPR; binding stability; 10 mM MgCl2, pH 7.5. The following applies: tags: LFB preparation (Biacore, amine-coupled NHS/EDC on CM5 chip, 5813 RU); Calbiochem 341274 also used in SELEX. For orientation: Surface plasmon resonance follows binding to a sensor surface in real time, without labels.

The target in data set [2] is T1, Factor H (complement factor H), plasma. Briefly: SPR; rank 3 of 5 truncations; 50 mM NaCl, 50 mM MgCl2, pH 7.5. The conditions noted are these: tags: LFB preparation (Biacore, amine-coupled NHS/EDC on CM5 chip, 5813 RU); Calbiochem 341274 also used in SELEX.
Data set [3] shares this target. Put plainly: SPR; rank 2 of 5 truncations; 50 mM NaCl, 50 mM MgCl2, pH 7.5. The conditions noted are these: tags: LFB preparation (Biacore, amine-coupled NHS/EDC on CM5 chip, 5813 RU); Calbiochem 341274 also used in SELEX.
Data set [4] has the same target. Put plainly: SPR; rank 4 of 5 truncations; 50 mM NaCl, 50 mM MgCl2, pH 7.5. The conditions noted are these: tags: LFB preparation (Biacore, amine-coupled NHS/EDC on CM5 chip, 5813 RU); Calbiochem 341274 also used in SELEX.
For data set [5] the target is unchanged. Put plainly: pulldown; affinity chromatography on aptamer-agarose; 74% of A254 retained and eluted with EDTA; 50 mM MgCl2, 50 mM NaCl, pH 7.5. The conditions noted are these: tags: LFB preparation (Biacore, amine-coupled NHS/EDC on CM5 chip, 5813 RU); Calbiochem 341274 also used in SELEX; label: biotin. As for the experimental part:
The plasma factor H is eluted with a 50 mM Tris+500 mM EDTA buffer at pH 8.0. The elution peak is collected according to the OD profile.

The target is the same in data set [6]. Put plainly: SPR; strongest of the five truncations; 50 mM Tris, 50 mM NaCl, 50 mM MgCl2, pH 7.5; p444 calls the FH recombinant, methods say LFB FH. The conditions noted are these: tags: LFB preparation (Biacore, amine-coupled NHS/EDC on CM5 chip, 5813 RU); Calbiochem 341274 also used in SELEX.

T1 sequence (P08603 19-1231, one chain of several): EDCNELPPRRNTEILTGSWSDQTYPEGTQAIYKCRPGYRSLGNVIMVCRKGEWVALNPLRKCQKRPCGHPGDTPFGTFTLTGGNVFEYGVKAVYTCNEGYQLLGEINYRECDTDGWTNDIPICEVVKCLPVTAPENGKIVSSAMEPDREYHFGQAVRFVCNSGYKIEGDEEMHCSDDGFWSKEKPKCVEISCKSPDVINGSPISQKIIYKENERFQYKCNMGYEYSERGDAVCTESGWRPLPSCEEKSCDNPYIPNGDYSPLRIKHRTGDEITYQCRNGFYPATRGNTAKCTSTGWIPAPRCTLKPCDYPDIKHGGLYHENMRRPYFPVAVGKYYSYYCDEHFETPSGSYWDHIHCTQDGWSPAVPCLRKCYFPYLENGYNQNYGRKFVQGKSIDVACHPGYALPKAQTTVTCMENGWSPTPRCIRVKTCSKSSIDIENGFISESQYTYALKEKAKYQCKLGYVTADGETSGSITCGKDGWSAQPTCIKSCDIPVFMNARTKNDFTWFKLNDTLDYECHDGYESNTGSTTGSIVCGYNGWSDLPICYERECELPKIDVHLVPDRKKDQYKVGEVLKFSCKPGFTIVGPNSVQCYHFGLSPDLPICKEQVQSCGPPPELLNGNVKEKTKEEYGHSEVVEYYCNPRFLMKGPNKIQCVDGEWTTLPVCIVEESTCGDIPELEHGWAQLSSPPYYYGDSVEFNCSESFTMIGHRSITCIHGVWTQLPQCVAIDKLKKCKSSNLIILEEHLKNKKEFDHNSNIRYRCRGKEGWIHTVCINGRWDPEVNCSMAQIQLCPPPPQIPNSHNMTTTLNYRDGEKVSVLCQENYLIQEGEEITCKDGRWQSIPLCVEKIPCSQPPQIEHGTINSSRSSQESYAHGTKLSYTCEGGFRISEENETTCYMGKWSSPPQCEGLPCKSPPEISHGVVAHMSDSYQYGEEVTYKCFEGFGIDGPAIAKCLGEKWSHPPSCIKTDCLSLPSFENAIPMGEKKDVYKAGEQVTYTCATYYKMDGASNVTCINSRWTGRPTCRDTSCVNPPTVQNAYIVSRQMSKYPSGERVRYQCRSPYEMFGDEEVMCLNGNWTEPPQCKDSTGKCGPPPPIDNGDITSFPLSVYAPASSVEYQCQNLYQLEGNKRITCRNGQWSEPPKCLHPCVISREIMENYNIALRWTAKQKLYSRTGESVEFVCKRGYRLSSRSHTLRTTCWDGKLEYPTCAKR

B1: FAM2-7 (ssDNA)
DNA: GGGTCAATGCCAGGTCTCCCGGTTACCAAGATCGTTGTTCTTGGTGTTAGTGGCATTCATCGGCTCGCAAGCAGTC
B1 returned a binding signal in data set [1] of 22.1 RU.

B2: FAM1-7 (ssDNA)
DNA: GGGTCAATGCCAGGTCTCGGGGGGCCGGTTATACGGGTCAGGCGGTTATACGGTATTCATCGGCTCGCAAGCAGTC
Regarding B2, in data set [1], the binding signal came to 15.4 RU.

B3: FAM1-10 (ssDNA)
DNA: GGGTCAATGCCAGGTCTCTGGGGGAGGGAGGGTCTGGGGGTTATACGTCACTAGCAAAATCGGCTCGCAAGCAGTC
Molecule B3 had a binding signal in data set [1] of 73.5 RU.

B4: FAM2-2 (ssDNA)
DNA: GGGTCAATGCCAGGTCTCCCGGTTACTGCCGTAGTTGTCTTACGGTGGTGTTAGTGGCATCGGCTCGCAAGCAGTC
In data set [1], B4 yielded a binding signal of 22.4 RU.

B5: FAM1-8 (ssDNA)
DNA: GGGTCAATGCCAGGTCTCAATCAGAAGGGTCTGGTGGTTATACGTTCATGTATTGGGTATCGGCTCGCAAGCAGTC
With B5, in data set [1], the binding signal is 36 RU.

B6: IND1 (ssDNA)
DNA: GGGTCAATGCCAGGTCTCGGTGGGAGGTGAGGTCGTTGGACGGTGGCAGGGGATTTTGATCGGCTCGCAAGCAGTC
For B6, the binding signal in data set [1] came out at 20.1 RU.

B7: MaptH1.1 N19-53 (ssDNA)
DNA: GGGCACGGGTCAGGCGGTTATACGGTGCCCATTGT
For the molecule B7, the binding result in data set [2] is listed as “binds”.

B8: FAM1-6 (ssDNA)
DNA: GGGTCAATGCCAGGTCTCGAGGAACGTGGGGTCAGGTGGTTATACGCAGGGTACCGGGATCGGCTCGCAAGCAGTC
As for B8, the binding signal in data set [1] is 30 RU.

B9: FAM2-1 (ssDNA)
DNA: GGGTCAATGCCAGGTCTCCCGGTTACCGCGCTAAGCTTGGCGATGGTGTTAGTGGCTGATCGGCTCGCAAGCAGTC
In data set [1], B9 showed a binding signal of 29.6 RU.

B10: FAM3 (ssDNA)
DNA: GGGTCAATGCCAGGTCTCTGAGGCGCAGATGTGGAGGCTTTTACAGGCGGTGCGGAACATCGGCTCGCAAGCAGTC
B10 registered a binding signal in data set [1] of 11.7 RU.

B11: FAM2-4 (ssDNA)
DNA: GGGTCAATGCCAGGTCTCCCGGTTACCAGTTGGTGTTTGTGGCTTTGCACGTCTGCATATCGGCTCGCAAGCAGTC
With B11, the binding signal in data set [1] worked out at 27.6 RU.

B12: FAM1-5 (ssDNA)
DNA: GGGTCAATGCCAGGTCTCGCAGAGGTGCGAGGGGCGGTGGGGTCTGGTGGTTATACGCATCGGCTCGCAAGCAGTC
As for B12, the binding signal in data set [1] worked out at 21.2 RU.

B13: MaptH1.1 N19-58 (ssDNA)
DNA: GGGCACGGGTCAGGCGGTTATACGGTGCCCATTGTTCTTT
With B13, in data set [3], the binding result is “binds”.

B14: FAM4 (ssDNA)
DNA: GGGTCAATGCCAGGTCTCCAAAGGGGGGGGTTGGGGGACCGTCCGTTGTTGATCTCACATCGGCTCGCAAGCAGTC
Regarding B14, the binding signal in data set [1] came out at 25.9 RU.

B15: FAM2-5 (ssDNA)
DNA: GGGTCAATGCCAGGTCTCCCGGTTACCAACTATGATAGTATGGTGTTTGTGGCATGATCGGCTCGCAAGCAGTC
Take B15: in data set [1], the binding signal was determined as 22.2 RU.

B16: MaptH1.1 N19-48 (ssDNA)
DNA: GGGCACGGGTCAGGCGGTTATACGGTGCCC
B16: in data set [4], the binding result is recorded as “binds”.

B17: FAM1-3 (ssDNA)
DNA: GGGTCAATGCCAGGTCTCGGACCGCGATGGAGAGGGGTCTGGTGGTTATACGCTATGCATCGGCTCGCAAGCAGTC
Consider B17, for which, in data set [1], the binding signal was 20.9 RU.

B18: FAM1-4 (ssDNA)
DNA: B17 DNA with A21G
Consider B18, for which, in data set [1], the binding signal worked out at 26.2 RU.

B19: FAM2-3 (ssDNA)
DNA: GGGTCAATGCCAGGTCTCCCGGTTACCTCCATTGGTGGTGTTAGTGGCTTTGTAGGATATCGGCTCGCAAGCAGTC
Turning to B19, the binding signal in data set [1] worked out at 18.2 RU.

B20: FAM1-11 (ssDNA)
DNA: GGGTCAATGCCAGGTCTCGGGGCAGGCGGTTATACGGAGAGCTTCTTACATGGGCCCTATCGGCTCGCAAGCAGTC
In the case of B20, in data set [1], the binding signal stood at 16.9 RU.

B21: MaptH1.1 (ssDNA)
DNA: GGGTCAATGCCAGGTCTCGGGCACGGGTCAGGCGGTTATACGGTGCCCATTGTTCTTTATCGGCTCGCAAGCAGTC
Turning to B21, in data set [5], the binding result is on record as “binds”.

B22: MaptH1.1 N13-48 (MaptH1.1CSO) (ssDNA)
DNA: CAGGTCTCGGGCACGGGTCAGGCGGTTATACGGTGCCC
B22: in data set [6], the binding result is on record as “binds”.

B23: FAM1-12 (ssDNA)
DNA: GGGTCAATGCCAGGTCTCACCGGGTCAGGCGGTTATACGGGTGAGGGCAGGTACATACATCGGCTCGCAAGCAGTC
Consider B23, for which, in data set [1], the binding signal was 18.2 RU.

B24: FAM1-13 (ssDNA)
DNA: B23 DNA with A44G
For B24, the binding signal in data set [1] is 30.6 RU.

B25: FAM1-9 (ssDNA)
DNA: GGGTCAATGCCAGGTCTCGGGGTGCGAGGGTCTGGTGGTTATACGTCGTCACCTCTAGATCGGCTCGCAAGCAGTC
B25: the binding signal in data set [1] stood at 57.8 RU.

B26: FAM2-6 (ssDNA)
DNA: GGGTCAATGCCAGGTCTCCCGGTTACCATCGAGGACGTCGCTTGGTGTTTGTGGCATGATCGGCTCGCAAGCAGTC
On to B26, for which the binding signal in data set [1] stood at 22.1 RU.
